The values that follow come from patent publication US9993566B2, “SEZ6 modulators and methods of use” (AbbVie Stemcentrx LLC, priority 2013, dated 2018).

Assay type in all cases: binding
The subject of assay [1] is cynomolgus SEZ6. Nature of the assay: Flow cytometry cross reactivity, yeast displaying extracellular domain of cynomolgus SEZ6. Particulars: 5 μg/mL antibody. The procedure:
(§1) In this regard flow cytometry was performed using a FACSCanto II as per the manufacturer's instructions in order to confirm that selected SC17 antibody modulators can immunospecifically associate with human SEZ6 and to determine whether the same modulators cross-react with cynomolgus, rat and/or murine SEZ6 in addition to SEZ6L and SEZ6L2. More particularly modulators were tested for cross reactivity to murine SEZ6 and rat SEZ6 by flow cytometry against Neuro2a (ATCC Cat # CCL131), and RIN-m5F (ATCC cat # CRL-11605) cell lines which express mouse SEZ6 and rat SEZ6, respectively. For examining cross reactivity to cynomolgus SEZ6, yeast displaying the extracellular domain of cynomolgus SEZ6 (Boder et al, 1997) were used for flow cytometry analysis.
(§2) Briefly 1×10^5 cells per well of Neuro2a, RIN-5mF, or yeast displaying cynomolgus SEZ6 cells were incubated for 30 minutes with 50 μL PBS (2% FCS) buffer with 5 μg/mL antibody. Cells were washed twice with the same buffer and then incubated with 50 μL per sample DyLight 649 labeled goat-anti-mouse IgG, Fc fragment specific secondary diluted 1:200 in PBS buffer. After incubating for 15 minutes cells were washed twice with the PBS buffer and re-suspended in the same with DAPI for flow cytometry analysis of Neuro2a and Rin-m5F or buffer without DAPI for flow cytometric analysis of yeast cells with cSEZ6.
(In flow cytometry, cells or beads pass a laser one at a time.)

The target of assay [2] is T1, SEZ6 ECD (Homo sapiens, UniProt Q53EL9).
T1 construct: SEZ6 extracellular domain (amino acids 1-904); expressed in transfected cells; host or cells: yeast (surface display, Cochran et al. protocol)
Kind of assay: Fine epitope mapping (phage display peptide library or yeast-displayed SEZ6 ECD mutants). Particulars: epitope conformational (discontinuous) or linear. The procedure:
Epitopes were classified either as conformational (i.e. discontinuous) or linear. Yeast displaying the SEZ6 ECD construct was heat treated for 30 minutes at 80° C. in order to denature the antigen, washed twice in ice-cold PBSA and then subjected to the same staining protocol and flow cytometry analysis as described above. Antibodies that bound to both the denatured and native yeast were classified as binding to a linear epitope, whereas antibodies that bound native yeast but not denatured yeast were classified as conformationally specific.
Fine epitope mapping was further performed on selected antibodies to determine the specific amino acids to which they bound. Antibodies that bound to a linear epitope were mapped using the Ph.D.-12 phage display peptide library kit (New England Biolabs E8110S). The antibody selected for epitope mapping was coated onto a Nunc MaxiSorp tube (Nunc) at 50 μg/mL in 3 mL 0.1 M sodium bicarbonate solution, pH 8 and incubated overnight. The tube was blocked with 3% BSA solution in bicarbonate solution. Then, 10^11 input phage in PBS+0.1% Tween-20 was allowed to bind, followed by ten consecutive washes with 0.1% Tween-20 to wash away non-binding phage. Remaining phage were eluted with 1 mL 0.2 M glycine for 10 minutes at room temperature with gentle agitation, followed by neutralization with 150 μL 1 M Tris-HCl pH 9. Eluted phage were amplified and panned again with 10^11 input phage, using 0.5% Tween-20 during the wash steps to increase selection stringency. DNA from 24 plaques of the eluted phage from the second round was isolated using the Qiaprep M13 Spin kit (Qiagen) and sequenced. Binding of clonal phage was confirmed using an ELISA assay, where the mapped antibody or a control antibody was coated onto an ELISA plate, blocked, and exposed to each clone phage. Phage binding was detected using horseradish peroxidase conjugated anti-M13 antibody (GE Healthcare), and the 1-Step Turbo TMB ELISA solution (Pierce). Phage peptide sequences from specifically binding phage were aligned using Vector NTI (Life Technologies) against the antigen ECD peptide sequence to determine the epitope of binding.
Selected antibodies that bound to a discontinuous epitope were mapped using the technique described by Chao et al. (2007). Libraries of SEZ6 ECD mutants were generated with error prone PCR using nucleotide analogues 8-oxo-2′deoxyguanosine-5′-triphosphate and 2′-deoxy-p-nucleoside-5′triphosphate (both from TriLink Bio) for a target mutagenesis rate of one amino acid mutation per clone. These were transformed into a yeast display format. Using the technique described above for domain-level mapping, the library was stained for c-myc and antibody binding at 50 nM. […] These clones were re-grown, and subjected to another round of FACS sorting for loss of binding to the target antibody. Using the Zymoprep Yeast Plasmid Miniprep kit (Zymo Research), individual ECD clones were isolated and sequenced. Where necessary, mutations were reformatted as single-mutant ECD clones using the Quikchange site directed mutagenesis kit (Agilent).
Individual ECD clones were next screened to determine whether loss of binding was due to a mutation in the epitope, or a mutation that caused misfolding. Mutations that involved cysteine, proline, and stop codons were automatically discarded due to the high likelihood of a misfolding mutation. Remaining ECD clones were then screened for binding to a non-competing, conformationally specific antibody. ECD clones that lost binding to non-competing, conformationally specific antibodies were concluded to contain misfolding mutations, whereas ECD clones that retained equivalent binding as wild type SEZ6 ECD were concluded to be properly folded. Mutations in the ECD clones in the latter group were concluded to be in the epitope. […]

The subject of assay [3] is rat SEZ6. Kind of assay: Flow cytometry cross reactivity, RIN-m5F cells. The settings on record: 5 μg/mL antibody. As to the method: as §1, §2

T1 sequence (Q53EL9 20-923): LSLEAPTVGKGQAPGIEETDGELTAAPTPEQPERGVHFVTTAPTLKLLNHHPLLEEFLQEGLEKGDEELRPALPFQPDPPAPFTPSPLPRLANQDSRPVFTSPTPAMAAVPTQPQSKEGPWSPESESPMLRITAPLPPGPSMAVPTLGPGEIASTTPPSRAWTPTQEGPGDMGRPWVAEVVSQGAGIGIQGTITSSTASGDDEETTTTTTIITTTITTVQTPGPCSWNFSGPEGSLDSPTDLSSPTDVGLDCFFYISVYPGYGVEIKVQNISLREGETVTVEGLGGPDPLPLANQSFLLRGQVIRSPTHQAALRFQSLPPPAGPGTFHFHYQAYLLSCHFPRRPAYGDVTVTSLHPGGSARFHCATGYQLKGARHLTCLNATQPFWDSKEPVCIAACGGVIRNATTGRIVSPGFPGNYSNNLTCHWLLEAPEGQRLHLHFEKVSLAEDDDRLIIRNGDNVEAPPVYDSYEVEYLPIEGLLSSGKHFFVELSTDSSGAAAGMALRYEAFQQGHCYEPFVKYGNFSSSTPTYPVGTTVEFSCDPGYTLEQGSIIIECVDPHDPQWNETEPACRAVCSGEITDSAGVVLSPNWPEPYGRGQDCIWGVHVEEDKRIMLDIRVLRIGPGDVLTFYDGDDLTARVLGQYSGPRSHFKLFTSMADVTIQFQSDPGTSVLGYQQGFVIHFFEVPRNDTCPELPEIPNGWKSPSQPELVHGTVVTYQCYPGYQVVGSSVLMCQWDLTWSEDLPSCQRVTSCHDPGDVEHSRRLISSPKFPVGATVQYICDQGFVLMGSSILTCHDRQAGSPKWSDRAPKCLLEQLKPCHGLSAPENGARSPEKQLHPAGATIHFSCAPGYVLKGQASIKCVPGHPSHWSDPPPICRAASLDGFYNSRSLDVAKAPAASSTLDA
Chain of rat SEZ6 (as listed by the source): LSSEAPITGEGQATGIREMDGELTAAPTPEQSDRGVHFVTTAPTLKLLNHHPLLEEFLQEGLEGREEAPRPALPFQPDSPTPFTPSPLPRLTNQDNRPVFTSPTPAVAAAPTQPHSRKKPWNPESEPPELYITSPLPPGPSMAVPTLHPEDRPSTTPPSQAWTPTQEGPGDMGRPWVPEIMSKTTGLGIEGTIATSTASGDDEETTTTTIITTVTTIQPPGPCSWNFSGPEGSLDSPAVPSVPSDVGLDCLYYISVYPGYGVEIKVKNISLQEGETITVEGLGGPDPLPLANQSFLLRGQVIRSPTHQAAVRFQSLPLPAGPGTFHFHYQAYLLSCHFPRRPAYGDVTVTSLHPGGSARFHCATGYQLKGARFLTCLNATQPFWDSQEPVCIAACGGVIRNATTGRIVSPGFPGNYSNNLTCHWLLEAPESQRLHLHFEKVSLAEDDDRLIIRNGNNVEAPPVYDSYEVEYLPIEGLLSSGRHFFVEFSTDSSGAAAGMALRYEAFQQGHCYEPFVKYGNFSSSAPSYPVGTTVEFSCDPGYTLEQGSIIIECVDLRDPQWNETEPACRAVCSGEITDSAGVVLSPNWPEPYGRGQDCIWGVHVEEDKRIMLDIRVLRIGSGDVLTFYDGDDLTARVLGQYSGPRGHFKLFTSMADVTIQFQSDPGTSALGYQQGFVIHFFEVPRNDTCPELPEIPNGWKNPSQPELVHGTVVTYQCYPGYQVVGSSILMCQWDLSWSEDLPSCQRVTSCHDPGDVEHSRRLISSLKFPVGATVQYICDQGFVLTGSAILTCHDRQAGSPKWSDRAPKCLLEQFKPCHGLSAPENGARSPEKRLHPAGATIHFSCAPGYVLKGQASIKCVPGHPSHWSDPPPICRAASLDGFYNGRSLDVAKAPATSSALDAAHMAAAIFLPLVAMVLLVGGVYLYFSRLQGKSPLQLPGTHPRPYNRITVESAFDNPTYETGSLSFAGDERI

B1: SC17.45: murine anti-SEZ6 antibody (antibody, V domains shown)
VH: QVQLQQPGSVLVRPGDSVKLSCKASGYTFTSYWMHWVKQSPGQGLEWIGEIHPHSGSTNYNEKFKGKATLTVDTSSSTAYVDLSSLTSEDSAVYYCVGGHYDYWGQGTTLTVSS
VL: ENVLTQSPAIMSASPGEKVTMTCSASSSVNYMYWYQQKSSTSPKLWIYDTSKLTSGVPGRFSGSGSGNSYSLTISNMEAEDVATYYCFQGSGYPLTFGSGTKLEIK
modifications: Murine SC17.45 VH; Murine SC17.45 VL
notes: murine anti-SEZ6 antibody
With B1, the “cross reactivity to cynomolgus SEZ6” value in assay [1] was “cross reactive”.

B2: SC17.36: murine anti-SEZ6 antibody (antibody, V domains shown)
VH: EVQLQESGPSLVKPSQSQSLTCSVTGDSITSDYWNWIRKFPGKKVEYMGYINYSGSTYYNPSLKSRISITRDTSKNQYYLQLNSVTSEDTATYYCARTSYYNKFLPFAYWGQGTLVTVSA
VL: QIVLTQSPALMSASPGEKVTMTCSASSSVSYMYWYQQKPRSSPKPWIYLTSNLASGVPARFSGSGSGTSYSLTISSMEAEDAATYYCQQWSSNPPTFGGGTKLEIK
modifications: Murine SC17.36 VH; Murine SC17.36 VL
notes: murine anti-SEZ6 antibody
As to B2, in assay [1], the “cross reactivity to cynomolgus SEZ6” value is given as “cross reactive”. Besides, the Discontinuous entry in assay [2] is on record as “Yes”.

B3: SC17.4: murine anti-SEZ6 antibody (antibody, V domains shown)
VH: QIQLVQSGPELKKPGETVKISCKASGYTFTDYSMHWVKQAPGKGLKWLGWINTETGEPTYSEDFKGRFAFSLETSASTAYLQINNLKNEDTATYFCVKNKGWFAYWGQGTLVTVSA
VL: DIKMTQSPSSMYASLGERVTITCKASQDINSYLTWFQQKPGKSPKTLIYRANRLIDGVPSRFSGSGSGQDYSLTISSLDYEDMGIYYCLQYDDFPWTFGGGTKLEIK
modifications: Murine SC17.4 VH; Murine SC17.4 VL
notes: murine anti-SEZ6 antibody
As for B3, the Discontinuous entry in assay [2] was “No”.

B4: SC17.156: murine anti-SEZ6 antibody (antibody, V domains shown)
VH: QVTLKESGPGILQPSQTLSLTCSFSGFSLSTSGMGVSWIRKTSGKGLEWLAHIFWDDDKWYNPSLKSRLTISKATSSNQVFLILTSVDTADTATYYCATFYGLYFAYWGQGTTLTVSS
VL: DVVMTQSPLSLPVSLGDQASISCRSSQSIVHSNGNTYLEWYLQKPGQSPKLLIYKVSNRFSGVPDRFSGSGSGTDFTLKISRVEAEDLGVYYCFQGSHVPPTFGGGTKLEIK
modifications: Murine SC17.156 VH; Murine SC17.156 VL
notes: murine anti-SEZ6 antibody
As to B4, the Discontinuous result in assay [2] was “Yes”.

B5: SC17.17: murine anti-SEZ6 antibody (antibody, V domains shown)
VH: EVQLQQSGPEVMKPGASVKMSCKASGYTFTDYNMHWVKQNQGKSLEWIGEINPNIGGTGYNQKFKGKATLTVHKSSSTAYMELRSLTSEDSAVYYCARTYSYYSYEFAYWGQGTLVTVSA
VL: QIVLTQSPAIMSASPGEKVTMTCSASSSVSYMHWYQQKSGTSPKRWIYDTSKLPSGVPARFSGSGSGTSYSLTISSMEAEDAATYYCQQWSSTPPTFGAGTKLELK
modifications: Murine SC17.17 VH; Murine SC17.17 VL
notes: murine anti-SEZ6 antibody
As to B5, the “cross reactivity to cynomolgus SEZ6” value in assay [1] was “cross reactive”. Also, in assay [3], the “cross reactivity to rat SEZ6” value is “cross reactive”. The Discontinuous entry in assay [2] is “Yes”.

B6: SC17.191: murine anti-SEZ6 antibody (antibody, V domains shown)
VH: EVQLQQSGPELMKPGASVKMSCKASGYTFTDYNMHWVKQNQGKSLEWIGEINPNTGGTGYNQKFKDKATLTVDKSSSTAYMELRSLTSEDSAVYYCARIPSLRRYYFDYWGQGTTLTVSS
VL: QIVLTQSPAIMSASPGEKVTMTCSASSSVSYMHWYQQKSGTSPKRWIYDTSKLASGVPARFTGSGSGTSYSLTISSMEAEDAATYYCQQWSSSPPTFGAGTKLELK
modifications: Murine SC17.191 VH; Murine SC17.191 VL
notes: murine anti-SEZ6 antibody
Consider B6, for which the Discontinuous entry in assay [2] is given as “Yes”.

B7: SC17.102: murine anti-SEZ6 antibody (antibody, V domains shown)
VH: EVQLQQSGPELMKPGASVKMSCKASGDTFTDYNIHWVKQNQGKSLEWIGEVNPNIGGIGYNQKFKGKATLTVDKSSSTAYMELRSLTSEDSAVYYCAMGRWYFDVWGAGTTVTVSS
VL: QIVLTQSPAIMSASPGEKVTMTCSASSSVSYMHWYQQKSGTSPKRWIYDTSKLASGVPPRFSGRGSGTSYSLTISSMEAEDAATYYCQHWSSNPPTFGAGTKLEMK
modifications: Murine SC17.102 VH; Murine SC17.102 VL
notes: murine anti-SEZ6 antibody
With B7, the Discontinuous result in assay [2] is “Yes”.

B8: SC17.166: murine anti-SEZ6 antibody (antibody, V domains shown)
VH: EVQLQQSGPELMKPGASVKMSCKASGYIFTDYNMHWVKQNQGKSLEWIGEVNPNTGGIGYNQKFKGKATLTVDKSSSTAYMDLRSLTSEDSAVYYCARDGNYCFDYWGQGTTLTVSS
VL: QIVLTQSPAIMSASPGEKVTMTCSASSSISYMHWYQQKSGTSPKRWIYDTSKLASGVPARFSGSGSGTSYSLTISNMEAEDAATYYCQQWSSTPPTFGGGTKLEIK
modifications: Murine SC17.166 VH; Murine SC17.166 VL
notes: murine anti-SEZ6 antibody
Consider B8, for which the Discontinuous entry in assay [2] is “Yes”.

B9: SC17.121: murine anti-SEZ6 antibody (antibody, V domains shown)
VH: EVQLQQSGPELMKPGASVKMSCKASGYTFTDHNIHWVKQHQGKSLEWIGEINPNTGGTGYNQKFQGKATMTVDKSSSTAYMELRSLTSEDSAVYYCVRGLYFFDYWGQGTTLTVSS
VL: QIVLTQSPAIMSASPGEKVTMTCSASSSVSYMHWYQQKSGTSPKRWIYDTSKLASGVPARFSGSGSGTSYSLTISSMETEDAATYYCQQWSNTPPTFGSVTKLEIK
modifications: Murine SC17.121 VH; Murine SC17.121 VL
notes: murine anti-SEZ6 antibody
Turning to B9, the Discontinuous result in assay [2] is “Yes”.
